# Source: the RNAGym collection of RNA variant scans (doi:10.7554/elife.80360)
# B1: HDV Ribozyme (parent)
# chain: GGCCGGCAUGGUCCCAGCCUCCUCGCUGGCGCCGGCUGGGCAACAUUCCGAGGGGACCGUCCCCUCGGUAAUGGCGAAUGGGACCCA
# Variants of: B1
# Test: self-cleavage, relative activity (ratio to wild type); higher = more cleavage; co-transcriptional
row,Variant,self-cleavage
1,C24U C30A,0.0482
2,U27C C86A,0.875
3,G2C C58A,0
4,C13G A42G,0.178
5,G10C C41A,0.767
6,U9A A51U,0.914
7,G53U C75G,0.214
8,G39U G55A,0.831
9,C24A G73U,0.288
10,C33G G76C,0.229
11,C7U U47A,0.554
12,G10C G81C,0.214
13,G39U C62U,0.918
14,C33G G54U,0.0426
15,G1C G31C,0
16,A16G G34U,0.324
17,A16G C18A,0.161
18,A8U C44A,0.449
19,G35U U60A,0.415
20,C75U C84A,0.237
21,A42U G68U,0.162
22,G6C G59C,0.277
23,U46C A77C,0.375
24,G59C A87G,0.99

row,Variant,self-cleavage
1,C22U C75U,0.214
2,U12A G28A,0.0314
3,U12C C26A,0.831
4,U27G C48G,0.923
5,G10C C57A,1.06
6,A16G C66A,0.88
7,C13G C48G,0.0615
8,C3G U47C,0.54
9,C30A A83C,0.0811
10,U37A U46A,0.185
11,C19A C21A,0.142
12,G1A C33U,0.0594
13,A43G A83G,0.215
14,U20G C26G,0.196
15,U65C C86A,0.673
16,C33A C36U,0.0396
17,G80A A83U,0.229
18,C7U G35U,0.0437
19,G31U C62U,0.404
20,C24A C33G,0.142
21,C7U A51G,0.965
22,G17U G35A,0.133
23,C26G A42U,0.449
24,C58U U60G,1.2

row,Variant,self-cleavage
1,C7U U20G,0.133
2,U46G A56C,0.959
3,G1C G59A,0.19
4,G38A G53C,0.0678
5,C21G C61A,0
6,A83U C85G,0.208
7,A70U A87G,1.02
8,C58G A83U,0.776
9,G6C A51U,0.469
10,U65C C85A,0.991
11,G38U C84U,0.0821
12,C18U C41G,0.0314
13,G6A U69G,0.689
14,G40U C66A,0.702
15,G28U G39A,0.0256
16,C33U G39U,0.58
17,G11A G68A,0.372
18,G34A G81U,0.07
19,A51C U69C,0.931
20,A51C C58A,0.779
21,C58A C85A,0.877
22,C7G G28C,0
23,U37G G74C,0.0361
24,U23A A42G,0.499

row,Variant,self-cleavage
1,G40C C66U,0.249
2,G25U G68C,0.0791
3,C3G G50A,0.589
4,G6C C58G,0.133
5,C22A C30G,0.154
6,C13U C75G,0.0723
7,C49G A56U,0.96
8,A51G A71U,0.629
9,C14A G68C,0.388
10,C22A C64U,0.32
11,U20A C26A,0.0594
12,C36U G52A,0.785
13,U65C A78U,0.312
14,C36G A56U,0.111
15,G10A C49A,0.665
16,U47A C48G,0.598
17,A45U,0.832
18,G39C A42U,0.227
19,A51G C84G,0.332
20,C61G A77C,0.203
21,U37C C84A,0.697
22,C21U G82A,0.0906
23,G68U C86A,0.956
24,C15G G80U,0.73

row,Variant,self-cleavage
1,C22G U60G,0
2,A51U G52C,0.849
3,U27A C64U,0.855
4,G59C C64A,0.946
5,C15G A45C,0.217
6,G25A C86U,0.248
7,G11A C44U,0.0723
8,G40A A78U,0.404
9,A56G C58U,0.862
10,G6C A71G,0
11,U37A C85U,0.259
12,C48G G53U,0.893
13,C15G C26G,0.431
14,C32A G76C,0.192
15,C7G A42C,0.208
16,C22G C86G,0.0779
17,A8G G31C,0.145
18,U65A C84G,0.494
19,G6C C64G,0.344
20,G1C C41A,0.123
21,C30U C84A,0.252
22,G5A A45U,0
23,C26G U69G,0.787
24,U46C G53C,0.739

row,Variant,self-cleavage
1,G35C A78U,0.0475
2,U20C G52C,0.244
3,G53U U79C,0.535
4,C24U G31C,0.0615
5,C66U C86A,0.905
6,G34C A51C,0.107
7,G59A C63A,1.07
8,C18A A83C,0.0831
9,G11U C63A,0.228
10,U60A G80U,0.299
11,C62U G81C,0.215
12,U47A C58U,1.03
13,U47G C63A,1.06
14,G6C U46G,0
15,A8G A83G,0.88
16,G2C G50A,0.138
17,C24A A77G,0.256
18,C32G G59U,0.0519
19,A45G A56U,1.12
20,C3G U12A,0.0462
21,G5A C36U,0.18
22,G35C U46C,0.185
23,G5A A8G,0.0692
24,U12G G50C,0.727

row,Variant,self-cleavage
1,G29A G68U,0.0841
2,G17A G40A,0.655
3,G40A C44U,0.582
4,C41A G68C,0.665
5,G1C U23A,0.128
6,U9G G10C,0.489
7,G5A G31C,0.095
8,C21A C32A,0.17
9,G6A G25A,0.121
10,C4U C32G,0
11,A8U C13U,0.302
12,G52C,1.01
13,G54A C75A,0.211
14,G11A C41G,0.188
15,G6C C66U,0.256
16,G54U A87G,0.933
17,A71U C75U,0.218
18,C13A C18G,0.0773
19,G10C A71C,0.802
20,G35U A78G,0.0723
21,U65A G76A,0.976
22,G6A U37G,0.128
23,G1U G81U,0.41
